# Assay results reported in patent US20220112244A1 (DOMPE FARMACEUTICI S P A, published 2022).
# Molecular target: IL-17A (agonist in the IL-17RA/IL17RC dimerization assay) (UniProt Q16552 24-155)
# Test: cell-based or functional assay
# Sequence of IL-17A (agonist in the IL-17RA/IL17RC dimerization assay) (Q16552 24-155 limits assumed): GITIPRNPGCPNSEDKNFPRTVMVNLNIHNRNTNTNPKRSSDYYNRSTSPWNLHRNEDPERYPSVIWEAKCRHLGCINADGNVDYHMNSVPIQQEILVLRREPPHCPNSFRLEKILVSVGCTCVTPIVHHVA
row,IC50 in IL-17RA/IL7RC dimerization assay,Binder
1,< 1 µM,Ac-VMVTIPADLYEWIEERQIKIWFQNRRMKWKK-NH2 [peptide of SEQ ID NO: 28]
2,< 10 µM,Ac-VHVTVPQELFEWVEE-NH2 [peptide of SEQ ID NO: 228]
3,< 10 µM,Ac-VHVTVPQEIYEWVRR-NH2 [peptide of SEQ ID NO: 236]
4,< 1 µM,Ac-VMVTIPADLYEWIEEVPGWG-NH2 [peptide of SEQ ID NO: 24]
5,< 10 µM,Ac-VHFTVPQELYEWVRR-NH2 [peptide of SEQ ID NO: 238]
6,< 10 µM,Ac-VHVTVPQELYEWVEE-NH2 [peptide of SEQ ID NO: 229]
7,< 1 µM,Ac-RRRRRRRRVMVTIPADLYEWIEE-NH2 [peptide of SEQ ID NO: 29]
8,< 10 µM,Ac-VHVSIPQELWEWVRR-NH2 [peptide of SEQ ID NO: 230]
9,< 10 µM,Ac-LRIYVPADLWDWINK-NH2 [peptide of SEQ ID NO: 241]
10,< 10 µM,Ac-VRIYLPADLWDWINK-NH2 [peptide of SEQ ID NO: 245]
11,< 10 µM,Ac-LRISVPLEIFEWLQH-NH2 [peptide of SEQ ID NO: 252]
12,< 10 µM,Ac-VKISVPLEIFEWLQH-NH2 [peptide of SEQ ID NO: 254]
13,< 1 µM,Ac-VMVTIPADLYEWIEERRR-NH2 [peptide of SEQ ID NO: 20]
14,< 10 µM,Ac-IHVTIPLEIFEWAQH-NH2 [peptide of SEQ ID NO: 247]
15,< 10 µM,Ac-VRVTVPQELYEWVRR-NH2 [peptide of SEQ ID NO: 234]
16,< 1 µM,Ac-VMVTIPADLYEWIEETWWETWW-NH2 [peptide of SEQ ID NO: 23]
17,< 10 µM,Ac-VRFSVPQEIYEWVRR-NH2 [peptide of SEQ ID NO: 251]
18,< 1 µM,Ac-VMVTIPADLYEWIEEARKKAAKA-NH2 [peptide of SEQ ID NO: 21]
19,< 0.4 µM,Ac-VMVTIPADLYEWIRR-NH2 [peptide of SEQ ID NO: 17]
20,< 10 µM,Ac-VHVSVPQELYEWVRR-NH2 [peptide of SEQ ID NO: 232]
21,< 10 µM,Ac-TWYVFNEQHQEYVRK-NH2 [peptide of SEQ ID NO: 257]
22,< 1 µM,Ac-VMVTIPADLYEWIEEVPGAG-NH2 [peptide of SEQ ID NO: 27]

row,IC50 in IL-17RA/IL7RC dimerization assay,Binder
1,< 10 µM,Ac-VKISVPADLWDWINK-NH2 [peptide of SEQ ID NO: 239]
2,< 10 µM,Ac-VHVSVPQELWEWVRR-NH2 [peptide of SEQ ID NO: 231]
3,< 10 µM,Ac-VRLYVPADLWDWINK-NH2 [peptide of SEQ ID NO: 244]
4,< 1 µM,Ac-VMVTIPADLYEWIEEGGTWWTEWSQ-NH2 [peptide of SEQ ID NO: 22]
5,< 10 µM,Ac-IHVTIPGEIFEWLQH-NH2 [peptide of SEQ ID NO: 250]
6,< 10 µM,Ac-VRGYVPADLWDWINK-NH2 [peptide of SEQ ID NO: 242]
7,< 10 µM,Ac-VRVTIPQELWEWVRR-NH2 [peptide of SEQ ID NO: 233]
8,< 10 µM,Ac-IHVTIPLEIFEWLQR-NH2 [peptide of SEQ ID NO: 248]
9,< 1 µM,Ac-VMVTIPADLYEWIEERRRRRR-NH2 [peptide of SEQ ID NO: 19]
10,< 10 µM,Ac-VRAYVPADLWDWINK-NH2 [peptide of SEQ ID NO: 243]
11,< 10 µM,Ac-IHVTIPLEIFEWLQH-NH2 [peptide of SEQ ID NO: 246]
12,< 10 µM,Ac-VRVTVPQELWEWVRR-NH2 [peptide of SEQ ID NO: 235]
13,< 10 µM,Ac-IHVTIPLEVFEWLQH-NH2 [peptide of SEQ ID NO: 249]
14,< 10 µM,Ac-LRGSVPLEIFEWLQH-NH2 [peptide of SEQ ID NO: 253]
15,< 1 µM,Ac-VMVTIPADLYEWIEEGGKETWWETW-NH2 [peptide of SEQ ID NO: 25]
16,< 10 µM,Ac-LRISVPADLWDWINK-NH2 [peptide of SEQ ID NO: 240]
17,< 10 µM,Ac-VEFNFPQQVYEWFDD-NH2 [peptide of SEQ ID NO: 255]
18,< 10 µM,Ac-VEFNFPQQVYEWVRR-NH2 [peptide of SEQ ID NO: 256]
19,< 10 µM,Ac-VHVTIPQEIWEWVRR-NH2 [peptide of SEQ ID NO: 237]
20,< 0.4 µM,Ac-VMVTIPADLYEWIEE-NH2 [peptide of SEQ ID NO: 18]
21,< 10 µM,Ac-VHVTVPQELWEWVEE-NH2 [peptide of SEQ ID NO: 227]
22,< 1 µM,Ac-VMVTIPADLYEWIEEVPGKG-NH2 [peptide of SEQ ID NO: 26]
